Experimental data as given in publication PMC8452523.

What was measured:
[1] = molecular target: trimeric Spike K417N/E484K/N501Y (SARS-CoV-2) (UniProt P0DTC2); assay: Luminex bead-based binding assay
[2] = molecular target: trimeric Spike, full P.1 variant (SARS-CoV-2) (UniProt P0DTC2); assay: Luminex bead-based binding assay

REGN10933 (antibody)
fold reduced binding affinity [1]: 60 fold
fold reduced binding affinity [2]: 195 fold
